Assay results taken from patent US20190233475A1 (Bicycle, published 2019).
*1 amine or outer side, *2 acyl side, *3 side chain or, on linkers, in order; H or OH if unused. Bridges are numbered along the chain shown (N, C = ends). Where no end group is shown, it is not given here. [ ]: non-standard residue; d: D form. TBMB = c1c(C[*:1])cc(C[*:3])cc1C[*:2]; NMeR = CN[C@@H](CCCNC(=N)N)C(=O)O; hArg = N=C(N)NCCCC[C@H](N)C(=O)O; Aze = O=C(O)[C@@H]1CCN1

B1: Ac-(06-550) Aze3 NMe-Arg5 (peptide)
peptide: Ac-CSF[Aze]Y[NMeR]CVYYPDIC-NH2
modifications: linker 1-7-14 via TBMB
notes: Synthetic bicyclic peptide, 5 x 6, made on Rink amide resin
B2: Ac-(06-550) NMe-Arg5 (peptide)
peptide: Ac-CSFPY[NMeR]CVYYPDIC-NH2
modifications: linker 1-7-14 via TBMB
notes: as for B1
B3: Ac-(06-550) HArg5 (peptide)
peptide: Ac-CSFPY[hArg]CVYYPDIC-NH2
modifications: linker 1-7-14 via TBMB
notes: as for B1
B4: Ac-(06-259-02) (peptide)
peptide: Ac-CNTWNPWCPWDAPLC-NH2
modifications: linker 1-8-15 via TBMB
notes: Synthetic bicyclic peptide without the terminal alanines, made on Rink amide resin
B5: Ac-(06-550) Aze3 HArg5 (peptide)
peptide: Ac-CSF[Aze]Y[hArg]CVYYPDIC-NH2
modifications: linker 1-7-14 via TBMB
notes: as for B1
B6: 06-254-01 (peptide)
peptide: ACKNYWNPCDLIETTCA-NH2
modifications: linker 2-9-16 via TBMB; N-terminus assumed
SMILES: CC[C@H](C)[C@@H]1NC(=O)[C@H](CC(C)C)NC(=O)[C@H](CC(=O)O)NC(=O)[C@@H]2CSCc3cc(cc(c3)CSC[C@@H](C(=O)N[C@@H](C)C(N)=O)NC(=O)[C@H]([C@@H](C)O)NC(=O)[C@H]([C@@H](C)O)NC(=O)[C@H](CCC(=O)O)NC1=O)CSC[C@H](NC(=O)[C@H](C)N)C(=O)N[C@@H](CCCCN)C(=O)N[C@@H](CC(N)=O)C(=O)N[C@@H](Cc1ccc(O)cc1)C(=O)N[C@@H](Cc1c[nH]c3ccccc13)C(=O)N[C@@H](CC(N)=O)C(=O)N1CCC[C@H]1C(=O)N2
notes: Synthetic bicyclic peptide, 6 x 6, made on Rink amide resin

target: T1, human plasma kallikrein (human, UniProt P03952 20-638); assay: enzyme inhibition assay, fluorogenic substrate Z-PheArg-AMC
T1 construct: Enzyme used in the Ki assays; also called human kallikrein; PK
Procedure: (§1) Functional enzyme assays were conducted in 10 mM Tris HCl, 150 mM NaCl, 10 mM MgCl₂, 1 mM CaCl₂ and 1 mg/mL BSA (all Sigma UK) pH 7.4 at 25° C. in solid black 96 or 384 well plates. […] Release of AMC was measured using a Pherastar FS (BMG Labtech), excitation 360 nm, emission 460 nm. The rate of the linear phase of the reaction, typically 5 to 45 minutes, was calculated in MARS data analysis software (BMG labtech). The rate was then used to calculate the IC₅₀ and Kᵢ in Prism (GraphPad). A four parameter inhibition non-linear regression equation was used to calculate the IC₅₀. The One site-fit Kᵢ equation used to calculate the Kᵢ, constraining the Kᵢ to the Kₘ for the substrate which is 150 μM for the human enzyme, and 200 μM for the rat orthologue. All Kᵢ/IC₅₀ values are the mean of at least two independent experiments, and at least three for peptides with Kᵢ values lower than 1 nM. For rabbit kallikrein, between 7 to 14 pM enzyme was employed, with 33 μM substrate with a Kₘ of 50 μM.

T1 sequence (P03952 20-638 limits assumed): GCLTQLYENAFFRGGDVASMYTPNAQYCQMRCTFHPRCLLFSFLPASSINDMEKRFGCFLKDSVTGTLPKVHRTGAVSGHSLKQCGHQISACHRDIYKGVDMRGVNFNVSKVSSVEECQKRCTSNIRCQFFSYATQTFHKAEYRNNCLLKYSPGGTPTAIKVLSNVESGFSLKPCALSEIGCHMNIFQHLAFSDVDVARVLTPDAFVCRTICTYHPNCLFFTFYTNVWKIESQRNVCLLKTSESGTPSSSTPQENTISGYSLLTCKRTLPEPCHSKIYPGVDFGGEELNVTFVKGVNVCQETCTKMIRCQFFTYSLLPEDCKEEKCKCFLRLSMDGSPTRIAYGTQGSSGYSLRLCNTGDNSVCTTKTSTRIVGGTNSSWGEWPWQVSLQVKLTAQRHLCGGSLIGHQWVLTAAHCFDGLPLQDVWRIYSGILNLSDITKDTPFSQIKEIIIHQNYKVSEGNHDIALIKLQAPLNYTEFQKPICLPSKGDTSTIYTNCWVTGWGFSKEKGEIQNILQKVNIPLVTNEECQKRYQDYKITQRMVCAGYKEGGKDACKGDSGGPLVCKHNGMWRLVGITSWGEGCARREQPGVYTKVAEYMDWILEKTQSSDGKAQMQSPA

In order of rising Ki:
1. B5  0.5 nM
2. B3  1.8 nM
3. B2  2.66 nM
4. B4  5.9 nM
5. B1  53 nM

target: T2, rat plasma kallikrein (rat, UniProt P14272 391-638); assay: as above
T2 construct: domain: catalytic domain; Expressed and purified in house; also called rat kallikrein; rPK
Procedure: as §1

T2 sequence (P14272 391-638 limits assumed): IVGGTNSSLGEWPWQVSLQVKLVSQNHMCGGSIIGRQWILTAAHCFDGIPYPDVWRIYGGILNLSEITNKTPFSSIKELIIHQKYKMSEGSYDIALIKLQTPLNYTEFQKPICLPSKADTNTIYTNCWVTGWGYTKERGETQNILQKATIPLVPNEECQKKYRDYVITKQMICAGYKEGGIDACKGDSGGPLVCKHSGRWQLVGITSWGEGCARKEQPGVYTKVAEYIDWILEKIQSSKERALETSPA

In order of rising Ki:
1. B4  3.8 nM
2. B5  5.6 nM
3. B3  25 nM

target: T1, human plasma kallikrein; assay: as above; remark: another data set of the same source
Procedure: as §1

B6 was tested, and the Ki was 1 nM.

target: T2, rat plasma kallikrein; assay: as above; remark: another data set of the same source
Procedure: as §1

B6 gave a Ki of 15.9 nM.

target: T3, biotinylated human plasma kallikrein (human, UniProt P03952 20-638, biotinylated (sites not given)); assay: homogeneous plate-based binding assay, TBMB-cyclised phage on biotinylated human plasma kallikrein
T3 construct: mature; also called biotinylated hPK; biotinylated human kallikrein
Procedure: Assay of binding of individual clones: Library transformant colonies, or selection output colonies, were picked and grown as individual cultures in 2TY broth containing selective antibiotic. The picked colonies were DNA-sequenced using a QIAgen PyroMark Q96 DNA sequencer to reveal the amino-acid substitution present in each clone, and were assayed for human plasma kallikrein binding as follows. The phage-containing supernatant was harvested from the culture and phage were cyclised with tris-bromomethylbenzene (TBMB) based on the methods of Heinis et al (Nature Chemical Biology vol. 5 pp 502-507 (2009)). The purified phage from this process were assayed for binding to biotinylated human plasma kallikrein using a homogeneous plate-based binding assay; assay read-out measured on a BMG Labtech Pherastar FS plate reader. The quantitative binding data from duplicate assay samples was averaged (mean) and expressed as signal:background. Assay data shown is representative of at least 2 independent experiments. The assay data was correlated with the peptide sequences.

T3 sequence (P03952 20-638 limits assumed): as the sequence (P03952 20-638 limits assumed) above

In order of falling “S:B (signal:background)” value:
1. CKNYWNPCDLIETTC (linker 1-8-15 via TBMB) [06-254-01 (phage clone)]  61.9
2. CKNYWNPCDLISIKC (linker 1-8-15 via TBMB) [06-254-B3]  61.6
3. CKNYWNPCDLVMDTC (linker 1-8-15 via TBMB) [06-254-03 (phage clone)]  56.7
4. CNHWNPWCSVEPPVC (linker 1-8-15 via TBMB) [06-259-01 (phage clone)]  51.7
5. CNHWNPWCSADPPIC (linker 1-8-15 via TBMB) [06-259-03 (phage clone)]  49.8
6. CKNYWNPCDLIPGPC (linker 1-8-15 via TBMB) [06-254-02 (phage clone)]  46.6
7. CKNYWNPCDLIQDAC (linker 1-8-15 via TBMB) [06-254-F4]  46.4
8. CKNYWNPCDLIGITC (linker 1-8-15 via TBMB) [06-254-G2]  46.3
9. CNTWNPWCPWDAPLC (linker 1-8-15 via TBMB) [06-259-02 (phage clone)]  43.5
10. CKNYWNPCDLVQIHC (linker 1-8-15 via TBMB) [06-254-H4]  38.9
11. CNHWNPWCSDDPYIC (linker 1-8-15 via TBMB) [06-259-H3]  38.7
12. CKNYWNPCDLIPDLC (linker 1-8-15 via TBMB) [06-254-F5]  38.7
13. CNHWNPWCSADPPRC (linker 1-8-15 via TBMB) [06-259-F1]  38
14. CKNYWNPCDLLGIAC (linker 1-8-15 via TBMB) [06-254-B9]  38
15. CNHWNPWCPADIPVC (linker 1-8-15 via TBMB) [06-259-E2]  37.7
16. CKNYWNPCDLIPTGC (linker 1-8-15 via TBMB) [06-254-G3]  37.5
17. CNHWNPWCSSDPPVC (linker 1-8-15 via TBMB) [06-259-H4]  33.6
18. CKNYWNPCDLIRPPC (linker 1-8-15 via TBMB) [06-254-D1]  33.6
19. CKNYWNPCDLVEAQC (linker 1-8-15 via TBMB) [06-254-G4]  33.1
20. CKNYWNPCDLVDTFC (linker 1-8-15 via TBMB) [06-254-A4]  32.4
21. CKNYWNPCDLIWTDC (linker 1-8-15 via TBMB) [06-254-E2]  31.4
22. CKNYWNPCDLVHDIC (linker 1-8-15 via TBMB) [06-254-E3]  30.2
23. CKNYWNPCDLLESTC (linker 1-8-15 via TBMB) [06-254-E5]  29.7
24. CKNYWNPCDLIAPYC (linker 1-8-15 via TBMB) [06-254-C1]  27.4
25. CKNYWNPCDLLHVRC (linker 1-8-15 via TBMB) [06-254-A7]  26.1
26. CKNYWNPCDLIADLC (linker 1-8-15 via TBMB) [06-254-H3]  25.2
27. CKNYWNPCDLIPDMC (linker 1-8-15 via TBMB) [06-254-D6]  24.4
28. CKNYWNPCDLVTISC (linker 1-8-15 via TBMB, also called 06-254 (phage clone)) [06-254 parent]  23.5
29. CKNYWNPCGLVYSTC (linker 1-8-15 via TBMB) [06-254-E6]  23.5
30. CNTWNPWCSWPDIDC (linker 1-8-15 via TBMB) [06-259-F2]  22.7
31. CNYWNPWCSDTRIGC (linker 1-8-15 via TBMB) [06-259-A6]  22.6
32. CKNFWNPCDLIPISC (linker 1-8-15 via TBMB) [06-254-D3]  20.3
33. CKNYWNPCDLLPDLC (linker 1-8-15 via TBMB) [06-254-B1]  9.99
34. CNTWNPWCGWVGGFC (linker 1-8-15 via TBMB, also called 06-259 (phage clone)) [06-259 (parent)]  1.17
